Biological target: APC (UniProt P25054)
Assay: Flag co-IP, immunoblot
Conditions: reference: wild-type Flag:α-catenin; sites Y177

α-catenin (from UniProt P35221) Y177F
binding against the reference: stronger

— article PMC3841736
